These are literature values, as cited in patent US10765706B2, “Method of stem cell delivery into the brain during chronic disease using blood brain barrier permeabilizers” (University of South Florida, priority 2015, dated 2020).

In this data set the test system is stroke patients. Conditions: acute stroke patients.

B1: t-PA: thrombolytic agent, tissue plasminogen activator (protein, UniProt P00750 36-562, looked up)
Tissue-type plasminogen …: SYQVICRDEKTQMIYQQHQSWLRPVLRSNRVEYCWCNSGRAQCHSVPVKSCSEPRCFNGGTCQQALYFSDFVCQCPEGFAGKCCEIDTRATCYEDQGISYRGTWSTAESGAECTNWNSSALAQKPYSGRRPDAIRLGLGNHNYCRNPDRDSKPWCYVFKAGKYSSEFCSTPACSEGNSDCYFGNGSAYRGTHSLTESGASCLPWNSMILIGKVYTAQNPSAQALGLGKHNYCRNPDGDAKPWCHVLKNRRLTWEYCDVPSCSTCGLRQYSQPQFRIKGGLFADIASHPWQAAIFAKHRRSPGERFLCGGILISSCWILSAAHCFQERFPPHHLTVILGRTYRVVPGEEEQKFEVEKYIVHKEFDDDTYDNDIALLQLKSDSSRCAQESSVVRTVCLPPADLQLPDWTECELSGYGKHEALSPFYSERLKEAHVRLYPSSRCTSQHLLNRTVTDNMLCAGDTRSGGPQANLHDACQGDSGGPLVCLNDGRMTLVGIISWGLGCGQKDVPGVYTKVTNYLDWIRDNMRP
Take B1: the “fraction of patients receiving the therapy with enhanced recovery” value is “⅓”.
